According to patent publication US5824638A, “Oral insulin delivery” (Shire Laboratories, Inc., priority 1995, dated 1998):

System: Caco-2 cells
Test: Transport of insulin across Caco-2 cell monolayers (Transwell, apical to basal, RIA)
Type: in vitro ADME, human
Settings: initial transport experiments, data not shown
Source text: The Caco-2 cell line has been established as the primary screening model for oral peptide delivery. Caco-2 cells are derived from a colon cancer and differentiate in culture to form intestinal epithelium similar to that found in the small intestine. The cells form a monolayer with many of the specific properties of the epithelial lining of the intestine: they form a brush border with normal enzymes, they form tight junctions between cells, and they acquire the barrier properties of an enterocyte sheet. When grown on permeable supports these cells can be used to screen drug microemulsion formulations.
Caco-2 colon carcinoma cells were obtained from American Type Culture Collection (Rockville, Md.) and maintained in culture in high glucose DMEM with 10% fetal calf serum, plus pen/strep, at 37° C., in 5% CO2. Cells were subcultured roughly every 5-7 days, 1:3 in T75 flasks, or when cells were 80-90% confluent, as determined by visual inspection. […]
For transport determinations, insulin transport enhancers were added to HBSS plus calcium and magnesium. […] Transport was measured by taking aliquots from the lower compartment, which was in contact with the basal surface of the cells. […] Aliquots were removed from each well and insulin levels determined by RIA and HPLC. Transport was calculated as percent transport per hour from top to bottom. […]

Substance: ^125 I labeled insulin: iodine-125 labeled insulin used in initial transport experiments
- Transport of labeled insulin across Caco-2 cells: no increase in transport
